Literature values, collected in article PMC5156371.
Values joined by “and” are separate entries in the source; they are usually repeats but may differ in a detail not shown here. Equal entries are not always repeated. Where two headings read alike, the source gives them in different places.

Assays:
MAL TIR (Homo sapiens) [1] = molecular target: MAL TIR (Homo sapiens) (UniProt P58753)
MyD88 TIR (Homo sapiens) [2] = molecular target: MyD88 TIR (Homo sapiens) (UniProt Q99836)
MAL TIR (Homo sapiens) [3] = molecular target: MAL TIR (Homo sapiens) (UniProt P58753); remark: listed apart in the source
MyD88 TIR (Homo sapiens) [4] = molecular target: MyD88 TIR (Homo sapiens) (UniProt Q99836); remark: listed apart in the source

Substance	Kd (MAL TIR (Homo sapiens) [1])	Kd (MyD88 TIR (Homo sapiens) [2])	Kd (MAL TIR (Homo sapiens) [3])	Kd (MyD88 TIR (Homo sapiens) [4])
A46 1-229 (from UniProt P26672)	1.44 µM and 1.56 µM	0.46 µM and 0.52 µM		
A46 87-229 (from UniProt P26672)			2.3 µM and 2.24 µM	0.89 µM and 1.24 µM
